Results on five molecules are retold here after patent US20220119534A1 (DRAGONFLY THERAPEUTICS, published 2022).

Residue numbers refer to the chain shown, from its start. Several values for one entry are separate records, joined by “and”; a condition that tells them apart may be missing. Equal entries are not always repeated.

The labels stand for the following.
T1: human NKG2D on effector cells (human, UniProt P26718 1-216)
T1 sequence (looked up): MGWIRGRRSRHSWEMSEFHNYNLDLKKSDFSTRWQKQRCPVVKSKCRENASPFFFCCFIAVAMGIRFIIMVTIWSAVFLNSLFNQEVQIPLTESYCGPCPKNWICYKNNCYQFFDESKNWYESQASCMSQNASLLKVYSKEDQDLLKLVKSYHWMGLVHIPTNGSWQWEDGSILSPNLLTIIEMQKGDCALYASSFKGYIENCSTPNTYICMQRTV

T2: Human CLEC12A expressed on cells (Ba/F3-hCLEC12A, PL21, HL60) (human, UniProt Q5QGZ9 1-265)
T2 sequence: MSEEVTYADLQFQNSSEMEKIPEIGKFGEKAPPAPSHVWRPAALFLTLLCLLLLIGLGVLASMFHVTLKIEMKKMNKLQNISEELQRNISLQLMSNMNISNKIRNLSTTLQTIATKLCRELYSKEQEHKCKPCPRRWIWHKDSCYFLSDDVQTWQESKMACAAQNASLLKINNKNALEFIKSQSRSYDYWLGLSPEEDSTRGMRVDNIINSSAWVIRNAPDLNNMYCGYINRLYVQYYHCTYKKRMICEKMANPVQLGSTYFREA

T3: recombinant human CLEC12A-His (human, UniProt Q5QGZ9 65-265)
T3 construct: also called hCLEC12A-His; hCLEC12A
T3 sequence: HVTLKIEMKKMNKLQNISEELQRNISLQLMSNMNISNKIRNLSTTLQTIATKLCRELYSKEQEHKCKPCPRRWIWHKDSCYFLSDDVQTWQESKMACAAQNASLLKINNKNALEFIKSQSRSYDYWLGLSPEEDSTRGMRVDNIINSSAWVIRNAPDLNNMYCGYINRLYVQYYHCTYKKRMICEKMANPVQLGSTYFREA

B1: AB0237-Dead-2D (other)
chain: QLQLQESGPGLVKPSETLSLTCTVSGFSLTNYGLHWIRQPPGKCLEWIGVIWSGGKTDYNPSLKSRVTISKDTSKNQFSLKLSSVQAADTAVYYCAKYDYDDSLDYWGQGTLVTVSSGGGGSGGGGSGGGGSGGGGSDIQMTQSPSSLSASVGDRVTITCHASQNINFWLSWYQQKPGKAPKLLIYEASNLHTGVPSRFSGSGSGTRFTLTISSLQPEDIATYYCQQSHSYPLTFGCGTKLEIKGSDKTHTCPPCPAPELLGGPSVFLFPPKPKDTLMISRTPEVTCVVVDVSHEDPEVKFNWYVDGVEVHNAKTKPREEQYNSTYRVVSVLTVLHQDWLNGKEYKCKVSNKALPAPIEKTISKAKGQPREPRVYTLPPCRDELTKNQVSLTCLVKGFYPSDIAVEWESNGQPENNYKTTPPVLVSDGSFTLYSKLTVDKSRWQQGNVFSCSVMHEALHNHYTQKSLSLSPG
heavy: EVQLVESGGGLVKPGGSLRLSCAASGFTFSSYSMNWVRQAPGKGLEWVSSISSSSSYIYYADSVKGRFTISRDNAKNSLYLQMNSLRAEDTAVYYCARGAPIGAAAGWFDPWGQGTLVTVSSASTKGPSVFPLAPSSKSTSGGTAALGCLVKDYFPEPVTVSWNSGALTSGVHTFPAVLQSSGLYSLSSVVTVPSSSLGTQTYICNVNHKPSNTKVDKKVEPKSCDKTHTCPPCPAPELLGGPSVFLFPPKPKDTLMISRTPEVTCVVVDVSHEDPEVKFNWYVDGVEVHNAKTKPREEQYNSTYRVVSVLTVLHQDWLNGKEYKCKVSNKALPAPIEKTISKAKGQPREPQVCTLPPSRDELTENQVSLTCLVKGFYPSDIAVEWESNGQPENNYKTTPPVLDSDGSFFLYSWLTVDKSRWQQGNVFSCSVMHEALHNHYTQKSLSLSPG
light: DIQMTQSPSTLSASVGDRVTITCRASNSISSWLAWYQQKPGKAPKLLIYEASSTKSGVPSRFSGSGSGTEFTLTISSLQPDDFATYYCQQYDDLPTFGGGTKVEIKRTVAAPSVFIFPPSDEQLKSGTASVVCLLNNFYPREAKVQWKVDNALQSGNSQESVTEQDSKDSTYSLSSTLTLSKADYEKHKVYACEVTHQGLSSPVTKSFNRGEC
B2: AB0192 TriNKET (bispecific antibody, human IgG1, kappa)
chain: EVQLVESGGGVVQPGGSLRLSCAASGFTFNAFGMHWVRQAPGKCLEWVAFISSGSTSIYYANTVKGRFTISRDNSKNTLYLQMNSLRAEDTAVYYCARDGYPTGGAMDYWGQGTSVTVSSGGGGSGGGGSGGGGSGGGGSDIQMTQSPSSLSASVGDRVTITCKASQDIYNYLSWFQQKPGKAPKPLIYRANILVSGVPSRFSGSGSGQDYTFTISSLQPEDIATYYCLQFDAFPFTFGCGTKLEIKGSDKTHTCPPCPAPELLGGPSVFLFPPKPKDTLMISRTPEVTCVVVDVSHEDPEVKFNWYVDGVEVHNAKTKPREEQYNSTYRVVSVLTVLHQDWLNGKEYKCKVSNKALPAPIEKTISKAKGQPREPRVYTLPPCRDELTKNQVSLTCLVKGFYPSDIAVEWESNGQPENNYKTTPPVLVSDGSFTLYSKLTVDKSRWQQGNVFSCSVMHEALHNHYTQKSLSLSPG
heavy: B1 heavy
light: DIQMTQSPSSVSASVGDRVTITCRASQGISSWLAWYQQKPGKAPKLLIYAASSLQSGVPSRFSGSGSGTDFTLTISSLQPEDFATYYCQQGVSFPRTFGGGTKVEIKRTVAAPSVFIFPPSDEQLKSGTASVVCLLNNFYPREAKVQWKVDNALQSGNSQESVTEQDSKDSTYSLSSTLTLSKADYEKHKVYACEVTHQGLSSPVTKSFNRGEC
B3: F3'-1295 TriNKET (other)
chain: B1 chain with A180I
heavy: B1 heavy
light: B2 light
B4: human CLEC12A expressed on cells (receptor)
chain: T2 sequence
notes: Transduced isogenic cells or endogenous expression on AML cells; also called RMA-hCLEC12A; Ba/F3-hCLEC12A
B5: scFv-1602 displayed on yeast (scFv)
scFv: QLQLQESGPGLVKPSETLSLTCTVSGFSLTNYGLHWIRQPPGKCLEWIGVIWSGGKTDYNPSLKSRVTISKDTSKNQFSLKLSSVQAADTAVYYCAKYDYDDSLDYWGQGTLVTVSSGGGGSGGGGSGGGGSGGGGSDIQMTQSPSSLSASVGDRVTITCHASQNINFWLSWYQQKPGKAPKLLIYEASNLHTGVPSRFSGSGSGTRFTLTISSLQPEDIATYYCQQSHSYPLTFGCGTKLEIK

For assay [1], the target named is T1, human NKG2D on effector cells. Nature of the assay: cell-based or functional assay.
In assay [2] the target is T2, Human CLEC12A expressed on cells …. Nature of the assay: cell-based or functional assay.
Assay [3] has the same target. As to the kind of experiment: cell-based or functional assay. This is another data set of the same source.
Assay [4] has the same target. Nature of the assay: cell-based or functional assay. This is another data set of the same source.
Assay [5] concerns the target T3, recombinant human CLEC12A-His. As to the kind of experiment: SPR, CLEC12A binding.
Assay [6] deals with B4. As to the kind of experiment: flow cytometry (gMFI) on CLEC12A+ PL-21 AML cells. For orientation: A flow cytometer gives signals particle by particle.
The target in assay [7] is T3, recombinant human CLEC12A-His. As to the kind of experiment: SPR screening, semi-purified.
Experimental: Binding affinities of the 18 semi-purified TriNKETs for hCLEC12A were assessed by SPR in screening.
The target of assay [8] is B4. Nature of the assay: flow cytometry, hCLEC12A+ Ba/F3.
Assay [9] has as its target T3, recombinant human CLEC12A-His. Nature of the assay: SPR 37C, average.
The target is the same in assay [10]. As to the kind of experiment: SPR 37C.
A further assay addresses T4, AB0300 (Homo sapiens (Human), UniProt P0DOX5 2-448 = IgG part; P0DOX7 1-214, L234A; L235A; P329G).
T4 construct: AB0237 with LALAPG in both Fc chains
As to the kind of experiment: flow cytometry on Ba/F3-hCLEC12A cells, fold over background.

For assay [11], the target named is T3, recombinant human CLEC12A-His. Nature of the assay: flow cytometry of yeast-displayed scFv; x axis PE-A binding of Clec12a-his, y axis FITC-A scFv expression; CLEC12A-His concentration not printed on the sheet.

The term Kd denotes the free concentration of one partner at which half of the binding sites on the other are occupied at equilibrium, for simple one-to-one binding. By EC50 is commonly meant the concentration giving half of the maximal effect. Lower therefore signals an effect from little substance. One may read the koff as a measure of how fast the partners let go of each other. As a reminder, the kon is a measure of how fast the partners come together.

Experimental for AB0300: The cells were then incubated with a fluorophore conjugated anti-human IgG secondary antibody and were analyzed by flow cytometry. The mean fluorescence intensity (MFI) values were normalized to secondary antibody only controls to obtain fold over background (FOB) values.
100,000 cells were seeded per well into a 96-well plate for FACS staining. Cells were washed with PBS. Cells were incubated in a 1:2000 dilution of live/dead dye in PBS for 15 minutes, then washed with FACS buffer. TriNKETs or mAbs were diluted into FACS buffer, and 50 μl containing diluted TriNKET or mAb was added to cells. Cells were incubated on ice for 20 minutes. After the incubation, cells were washed with FACS buffer. Anti-human IgG-Fc secondary antibody was diluted into FACS buffer, and 50 μl was added per well for detection of the bound TriNKETs or mAbs. Cells were incubated for 20 minutes on ice, then washed with FACS buffer. 50 μl of fixation buffer was added to each well, and cells were incubated for 10 minutes at room temperature. Cells were washed with FACS buffer and resuspended in FACS buffer for analysis with BD FACS Celesta SN #H66034400085, or BD FACS Celesta SN #H66034400160. Cells of interest were identified using FSC vs. SSC plot, and an appropriately shaped gate was drawn around the cells. Within the gated cells, doublet cells were removed by viewing FSC-H vs FSC-A plot. Within the single cell population, live cells were gated. Within the live gate, the mean fluorescence intensity (MFI) of each sample and the secondary-only control was calculated. Fold-over-background (FOB) was calculated as the ratio of test article MFI over secondary-only background MFI. Data were fit to a four-parameter non-linear regression curve using GraphPad Prism 7.0.

On to B1, for which the “EC50 nM, KHYG-1-CD16aV-mediated lysis of HL-60” value in assay [1] stood at 2.5 nM.

As to B2, in assay [2], the “EC50, rested NK cell lysis of PL21 cells (mean of six donors)” value came to 0.61 nM. In assay [3], the “% Max, ADCP activity of M0 macrophages against PL21 cells” value was 15% and the “EC50, ADCP activity of M0 macrophages against PL21 cells” value worked out at 0.03 nM. Besides, in [4], the “EC50, rested NK cells lysis of HL60 cells (mean of four donors)” value turned out to be 0.3 nM.

On to B3, for which the Kd is 1.2 nM in assay [5]; 2.94 nM in assay [7]; 1.43 nM in assay [9]; 1.43 nM and 1.42 nM and 1.44 nM in assay [10]. For the same molecule, the EC50 stood at 11.7 nM in [6] and 26.1 nM in [8]. Moreover, the koff in assay [7] is 0.00153 s⁻¹; in assay [9] it was 0.000594 s⁻¹; in assay [10] it was 0.000587 s⁻¹ and 0.000589 s⁻¹ and 0.000605 s⁻¹ and 0.000596 s⁻¹. Further, the kon in assay [7] is 520000 M⁻¹ s⁻¹; in assay [9], 415000 M⁻¹ s⁻¹; in [10] it was 411000 M⁻¹ s⁻¹ and 415000 M⁻¹ s⁻¹ and 419000 M⁻¹ s⁻¹ and 416000 M⁻¹ s⁻¹. Also, the “Max MFI” value in assay [8] turned out to be 48000 MFI.

B4: the binding result with AB0300 is recorded as “binds”.

B5: the binding result in [11] is reported as “binds”.
